From US20090148464A1 come the findings set out here.

The assay has as its target His-tagged recombinant MIF (macrophage migration inhibitory factor), expressed in Escherichia coli from pQE30. The experiment in a line: SPR, BIAcore 2000, His-tagged MIF on Sensor Chip NTA, TRX as analyte, 1:1 binding with drifting baseline model. For orientation: In SPR one partner is held on a chip, and binding of the other changes the refractive index at the surface.

His-tagged recombinant MIF (macrophage migration inhibitory factor), expressed in Escherichia coli from pQE30, sequence (P14174 2-115): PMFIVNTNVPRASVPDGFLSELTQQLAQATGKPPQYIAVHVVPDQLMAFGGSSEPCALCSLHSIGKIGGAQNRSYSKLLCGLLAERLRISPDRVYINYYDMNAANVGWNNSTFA

A word on the Kd: it is the equilibrium constant for the complex coming apart. What is called kon is the rate constant with which the complex forms. Consider Recombinant TRX (Ajinomoto Co., Inc.), for which the Kd came out at 9.96 nM and the on-rate constant (kon) is 120 M⁻¹ s⁻¹.
